# Reference: patent publication US20200024335A1 (BERG, published 2020)
# T1: E. coli-expressed partial FLNB (aa1416-2089), Filamin B immunogen (human, UniProt O75369 1416-2089)
# T1 construct: covers filamin repeats 13-19; also called partial FLNB protein
# T1 sequence: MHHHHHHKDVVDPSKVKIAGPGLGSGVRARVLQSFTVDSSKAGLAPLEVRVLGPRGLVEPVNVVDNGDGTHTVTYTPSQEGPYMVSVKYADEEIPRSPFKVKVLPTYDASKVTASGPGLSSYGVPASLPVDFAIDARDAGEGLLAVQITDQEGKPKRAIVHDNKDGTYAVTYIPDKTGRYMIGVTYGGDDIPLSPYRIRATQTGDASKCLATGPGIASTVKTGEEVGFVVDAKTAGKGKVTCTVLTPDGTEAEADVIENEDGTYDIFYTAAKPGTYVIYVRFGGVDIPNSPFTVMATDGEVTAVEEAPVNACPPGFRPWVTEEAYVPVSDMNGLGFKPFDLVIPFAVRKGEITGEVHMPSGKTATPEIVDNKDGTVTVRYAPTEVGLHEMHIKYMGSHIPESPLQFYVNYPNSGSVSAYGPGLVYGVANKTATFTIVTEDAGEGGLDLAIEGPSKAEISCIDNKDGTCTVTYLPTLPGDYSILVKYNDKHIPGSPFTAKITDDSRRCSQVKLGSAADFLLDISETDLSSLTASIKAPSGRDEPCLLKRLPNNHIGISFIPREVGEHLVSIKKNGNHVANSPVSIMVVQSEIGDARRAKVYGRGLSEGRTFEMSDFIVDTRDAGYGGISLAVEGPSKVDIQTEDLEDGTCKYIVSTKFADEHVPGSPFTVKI
# T2: E. coli-expressed partial FLNC (aa 1438-2128) (Homo sapiens (Human), UniProt Q14315 1438-2128)
# T2 construct: Covers the same region as FLNB aa1416-2089; also called Partial Filamin C (aa 1438-2128)
# T2 sequence: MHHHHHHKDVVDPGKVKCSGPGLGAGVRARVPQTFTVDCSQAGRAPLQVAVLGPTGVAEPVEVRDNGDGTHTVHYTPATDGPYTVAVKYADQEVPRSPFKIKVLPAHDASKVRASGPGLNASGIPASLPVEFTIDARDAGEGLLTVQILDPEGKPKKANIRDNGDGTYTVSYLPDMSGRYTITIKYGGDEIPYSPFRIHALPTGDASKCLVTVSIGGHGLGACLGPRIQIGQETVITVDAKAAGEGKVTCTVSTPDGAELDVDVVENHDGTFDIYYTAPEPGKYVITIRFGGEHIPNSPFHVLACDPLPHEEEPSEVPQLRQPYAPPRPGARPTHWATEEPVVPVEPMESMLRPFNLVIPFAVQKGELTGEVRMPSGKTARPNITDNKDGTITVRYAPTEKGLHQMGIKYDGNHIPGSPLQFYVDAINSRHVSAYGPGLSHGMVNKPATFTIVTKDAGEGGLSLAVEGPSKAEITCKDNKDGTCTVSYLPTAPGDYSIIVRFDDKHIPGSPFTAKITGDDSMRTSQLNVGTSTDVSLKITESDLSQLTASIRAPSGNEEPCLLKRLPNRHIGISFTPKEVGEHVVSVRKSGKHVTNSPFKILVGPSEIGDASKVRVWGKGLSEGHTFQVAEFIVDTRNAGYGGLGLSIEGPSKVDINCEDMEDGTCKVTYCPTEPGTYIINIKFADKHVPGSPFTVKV
# T3: E. coli-expressed partial FLNA (aa1443-2131) (Homo sapiens (Human), UniProt P21333 1443-2131)
# T3 construct: Covers the same region as FLNB aa1416-2089; also called Partial Filamin A (aa 1443-2131)
# T3 sequence: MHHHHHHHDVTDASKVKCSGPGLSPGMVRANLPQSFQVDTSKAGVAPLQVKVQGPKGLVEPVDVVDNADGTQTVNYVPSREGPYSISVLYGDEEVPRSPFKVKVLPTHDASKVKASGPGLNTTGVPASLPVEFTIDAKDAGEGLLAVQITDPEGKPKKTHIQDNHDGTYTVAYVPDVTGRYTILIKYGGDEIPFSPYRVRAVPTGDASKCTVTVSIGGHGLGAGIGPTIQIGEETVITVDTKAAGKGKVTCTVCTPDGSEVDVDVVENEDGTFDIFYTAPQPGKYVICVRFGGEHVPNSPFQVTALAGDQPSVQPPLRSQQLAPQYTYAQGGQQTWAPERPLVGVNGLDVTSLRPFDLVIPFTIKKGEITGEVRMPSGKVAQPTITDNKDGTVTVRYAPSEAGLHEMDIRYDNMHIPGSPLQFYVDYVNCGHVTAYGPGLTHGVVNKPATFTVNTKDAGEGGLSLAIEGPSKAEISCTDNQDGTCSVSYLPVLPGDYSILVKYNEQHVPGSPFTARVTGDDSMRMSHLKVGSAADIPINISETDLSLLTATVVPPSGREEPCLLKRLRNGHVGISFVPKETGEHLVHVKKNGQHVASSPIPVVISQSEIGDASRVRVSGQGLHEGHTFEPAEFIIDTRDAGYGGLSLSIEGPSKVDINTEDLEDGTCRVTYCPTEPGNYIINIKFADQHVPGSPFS
# Legend:
# [1] = target: E. coli-expressed partial FLNB (aa1416-2089), Filamin B immunogen (human) (UniProt O75369); assay: ELISA, coated protein, negative control
# [2] = target: T4, HEK293-expressed full length FLNB (human, UniProt O75369 2-2601); assay: ELISA, coated protein, negative control
# T4 construct: prepared by GenScript; also called full length human FLN-B protein
# T4 sequence (O75369 other isoform, or with tags, fused parts or gaps): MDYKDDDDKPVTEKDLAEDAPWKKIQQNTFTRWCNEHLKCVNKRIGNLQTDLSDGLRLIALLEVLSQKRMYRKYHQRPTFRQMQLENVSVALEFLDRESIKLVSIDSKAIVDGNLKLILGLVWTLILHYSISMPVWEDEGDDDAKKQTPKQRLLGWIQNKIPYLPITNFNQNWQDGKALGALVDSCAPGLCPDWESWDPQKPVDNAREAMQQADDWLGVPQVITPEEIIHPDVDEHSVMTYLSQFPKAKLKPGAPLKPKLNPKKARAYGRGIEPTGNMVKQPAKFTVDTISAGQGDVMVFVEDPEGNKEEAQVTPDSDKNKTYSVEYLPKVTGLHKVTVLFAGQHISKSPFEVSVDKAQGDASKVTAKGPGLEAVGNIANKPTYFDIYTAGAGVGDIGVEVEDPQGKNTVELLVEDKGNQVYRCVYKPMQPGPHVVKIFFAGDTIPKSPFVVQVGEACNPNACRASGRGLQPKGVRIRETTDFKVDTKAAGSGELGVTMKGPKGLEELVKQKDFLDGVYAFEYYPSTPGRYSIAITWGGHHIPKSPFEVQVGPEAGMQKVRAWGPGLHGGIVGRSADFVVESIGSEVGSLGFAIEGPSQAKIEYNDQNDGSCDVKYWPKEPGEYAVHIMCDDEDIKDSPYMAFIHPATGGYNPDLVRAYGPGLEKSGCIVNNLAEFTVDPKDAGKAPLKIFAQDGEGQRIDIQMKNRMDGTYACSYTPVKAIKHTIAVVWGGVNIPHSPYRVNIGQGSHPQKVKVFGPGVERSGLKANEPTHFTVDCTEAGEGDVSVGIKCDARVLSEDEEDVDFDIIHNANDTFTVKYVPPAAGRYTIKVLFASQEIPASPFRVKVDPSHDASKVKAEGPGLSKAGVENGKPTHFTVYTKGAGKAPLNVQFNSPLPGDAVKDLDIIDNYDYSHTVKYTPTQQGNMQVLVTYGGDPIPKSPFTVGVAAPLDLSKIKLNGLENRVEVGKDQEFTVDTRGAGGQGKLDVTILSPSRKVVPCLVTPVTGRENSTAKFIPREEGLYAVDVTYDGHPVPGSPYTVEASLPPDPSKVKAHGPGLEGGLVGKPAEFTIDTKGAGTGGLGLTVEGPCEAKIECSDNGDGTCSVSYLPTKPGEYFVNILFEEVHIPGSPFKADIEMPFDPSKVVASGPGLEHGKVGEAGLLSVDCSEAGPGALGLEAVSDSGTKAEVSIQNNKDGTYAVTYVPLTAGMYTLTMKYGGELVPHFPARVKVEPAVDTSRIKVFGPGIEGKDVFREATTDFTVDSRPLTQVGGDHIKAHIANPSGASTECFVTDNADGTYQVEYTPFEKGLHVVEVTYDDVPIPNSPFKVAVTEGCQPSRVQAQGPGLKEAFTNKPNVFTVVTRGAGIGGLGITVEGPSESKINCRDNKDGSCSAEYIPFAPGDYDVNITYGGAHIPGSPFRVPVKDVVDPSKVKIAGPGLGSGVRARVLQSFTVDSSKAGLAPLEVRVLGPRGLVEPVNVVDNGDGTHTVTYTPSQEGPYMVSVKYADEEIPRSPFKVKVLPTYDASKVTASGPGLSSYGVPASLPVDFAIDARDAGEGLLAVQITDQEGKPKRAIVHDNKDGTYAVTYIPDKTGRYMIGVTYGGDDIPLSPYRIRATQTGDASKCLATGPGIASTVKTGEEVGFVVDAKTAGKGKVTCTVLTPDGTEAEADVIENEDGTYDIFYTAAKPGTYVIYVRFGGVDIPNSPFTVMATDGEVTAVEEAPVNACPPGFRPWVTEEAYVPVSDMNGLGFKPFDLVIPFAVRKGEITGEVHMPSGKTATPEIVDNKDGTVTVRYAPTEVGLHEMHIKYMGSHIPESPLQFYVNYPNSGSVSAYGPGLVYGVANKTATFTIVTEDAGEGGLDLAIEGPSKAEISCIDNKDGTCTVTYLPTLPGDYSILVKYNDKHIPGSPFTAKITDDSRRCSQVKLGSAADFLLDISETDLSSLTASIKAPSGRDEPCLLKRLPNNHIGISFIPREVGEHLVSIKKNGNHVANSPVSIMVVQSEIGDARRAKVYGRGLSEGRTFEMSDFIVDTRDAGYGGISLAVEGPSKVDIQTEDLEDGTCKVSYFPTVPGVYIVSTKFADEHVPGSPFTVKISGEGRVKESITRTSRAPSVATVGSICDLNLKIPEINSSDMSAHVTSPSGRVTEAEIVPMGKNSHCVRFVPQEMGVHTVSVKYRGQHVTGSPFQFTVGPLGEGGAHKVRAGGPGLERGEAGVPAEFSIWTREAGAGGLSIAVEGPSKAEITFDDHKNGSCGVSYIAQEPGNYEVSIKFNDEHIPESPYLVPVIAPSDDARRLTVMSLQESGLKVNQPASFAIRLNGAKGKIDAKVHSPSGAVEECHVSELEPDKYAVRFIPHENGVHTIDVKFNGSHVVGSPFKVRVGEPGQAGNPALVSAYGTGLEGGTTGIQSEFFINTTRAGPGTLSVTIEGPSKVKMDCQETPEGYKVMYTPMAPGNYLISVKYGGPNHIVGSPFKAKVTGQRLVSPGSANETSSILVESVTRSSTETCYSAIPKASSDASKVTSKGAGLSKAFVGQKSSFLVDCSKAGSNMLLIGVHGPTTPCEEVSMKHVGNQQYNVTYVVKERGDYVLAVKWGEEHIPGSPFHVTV
# [3] = target: HEK293-expressed full length FLNA (Homo sapiens (Human)) (UniProt P21333); assay: ELISA, coated protein, negative control
# [4] = target: E. coli-expressed partial FLNA (aa1443-2131) (Homo sapiens (Human)) (UniProt P21333); assay: ELISA, coated protein, negative control
# [5] = target: E. coli-expressed partial FLNC (aa 1438-2128) (Homo sapiens (Human)) (UniProt Q14315); assay: ELISA, coated protein, negative control
# [6] = target: 10% pooled normal human serum; assay: ELISA, coated 10% serum, hybridoma supernatant
# [7] = target: T5, HEK293-expressed full length FLNA (Homo sapiens (Human), UniProt P21333 2-2647); assay: ELISA, coated protein, hybridoma supernatant
# T5 construct: also called Full length Filamin A
# Source text: (§1) Filamin A (FLNA) and Filamin C (FLNC) are the other two members in the Filamin family; they share 69% and 61% identity to FLNB, respectively. The clones were screened for negative with E. coli-expressed partial FLNA (aa1443-2131) and E. coli-expressed FLNC (aa 1438-2128) which cover the same region as FLN-B (aa1416-2089), and HEK293-expressed full length FLNA. 10% human serum was further tested for any unexpected cross-reactivity. The Partial FLNA (aa 1443-2131) protein sequence is shown in SEQ ID NO: 32. Partial FLNC (aa 1438-2128) protein sequence is shown in SEQ ID NO: 33. Full length FLNA protein sequence is shown in SEQ ID NO: 34.
# (§2) Next, the proteins were coated and tested for supernatants from clones 3F10 and 5H7 by ELISA. […] FLNB proteins were tested for specificity, while homologous proteins FLNA and FLNC from the same family were tested for any cross-reactivity. 10% pooled normal human serum was also included for any unexpected non-specific binding.
# [8] = target: T1, E. coli-expressed partial FLNB …; assay: ELISA, coated protein, hybridoma supernatant
# Source text: as §1, §2
# [9] = target: T4, HEK293-expressed full length FLNB; assay: ELISA, coated protein, hybridoma supernatant
# Source text: as §1, §2
# [10] = target: T2, E. coli-expressed partial FLNC (aa …); assay: ELISA, coated protein, hybridoma supernatant
# Source text: as §1, §2
# [11] = target: T3, E. coli-expressed partial FLNA …; assay: ELISA, coated protein, hybridoma supernatant
# Source text: as §1, §2
# [12] = target: T4, HEK293-expressed full length FLNB; assay: BLI (Octet), antibody on anti-mIgG Fc capture sensor, FLNB 25 nM
# [13] = target: HEK293-expressed full length FLNA (Homo sapiens (Human)) (UniProt P21333); assay: ELISA, coated protein, hybridoma supernatant
ELISA test result [1],ELISA test result [2],ELISA test result [3],ELISA test result [4],ELISA test result [5],ELISA test result [6],ELISA test result [7],binding result [7],ELISA test result [8],ELISA test result [9],ELISA test result [10],binding result [10],ELISA test result [11],binding result [11],Kd [12],koff [12],kon [12],ELISA test result [13],Molecule
0.04,0.06,0.073,0.05,0.05,–,–,–,–,–,–,–,–,–,–,–,–,–,Neg ctl (negative control of the specificity ELISA)
–,–,–,–,–,0.048,0.076,no binding,3.87,2.36,0.06,no binding,0.05,no binding,< 1 pM,< 1e-07 s⁻¹,270000 M⁻¹ s⁻¹,–,"3F10 murine monoclonal anti-FLNB antibody (antibody, V domains shown, Tested as hybridoma supernatant or purified antibody; also called clone 3F10; anti-FLNB antibody (3F10)) VH: QVQLQQPGAELVKPGASVKLSCKASGYTFTSYWMHWVKQRPGQGLEWIGMIHPNSGSTNYNEKFKSKATLTVDKSSSTAYMQLSSLTSEDSAVYYCAIYGSGPWFAYWGQGTLVTVSA VL: DIQMTQSPASLSASVGETVTITCRASENIYSSLAWYQQKQGKSPQLLVYYAKTLAEGVPSRFSGSGSGTQFSLKINRLQPEDFGSYYCQHHYGSPLTFGAGTKLELK"
–,–,–,–,–,0.123,–,–,3.48,3.49,0.05,no binding,0.05,no binding,< 1 pM,< 1e-07 s⁻¹,250000 M⁻¹ s⁻¹,0.191,"5H7 murine monoclonal anti-FLNB antibody (antibody, IgG2b, V domains shown, also called clone 5H7; biotin-linked monoclonal antibody specific for FLNB (5H7)) VH: DVQLQESGPGLVKPSQSLSLTCSVTGYSITSGYYWNWIRQFPGNKLEWMGYISYDGSNNYNPSLKNRISITRDTSKNQFFLRLNSVTTEDTATYYCARETWASFDYWGQGTTLTVSS VL: DIVMTQSQKFMSTTVGDRVGITCKASQNVGIAVAWYQQKPGQSPRLLIYSASYRYTGVPDRFSGSGSGTDFTLTINNMQSEDLADYFCQQYSSYPLTFGSGTKLEIK"
